This is an account of results in the supplement of paper PMC5998384.

Series [1] relates to HeLa Kyoto. Briefly: melting temperature (median over replicates), in situ; higher = more thermally stable.
Series [2] relates to HeLa Kyoto. Briefly: solubility change mitosis vs G1/S (difference of NP-40 vs SDS log2 ratios) (log2 ratio difference); higher = more soluble in mitosis.
The subject of series [3] is HeLa Kyoto. As to the kind of experiment: solubility in G1/S (NP-40 vs SDS abundance) (log2 ratio); higher = more soluble. As to conditions: cell cycle stage: G1/S.
Series [4] relates to HeLa Kyoto. Briefly: thermal stability score vs G1/S (z-score of summed log2 fold changes over temperatures); higher = more thermally stable than in G1/S.
Setting [5] is: cell cycle stage: early G1 (4.5 h after nocodazole release).
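Wherever melting temperature (median over replicates), in situ is given: HeLa Kyoto cells synchronized by double thymidine or nocodazole block, proteins quantified by TMT10plex mass spectrometry, three independent biological replicates.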
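Wherever solubility change mitosis vs G1/S (difference of NP-40 vs SDS log2 ratios) is given: synchronized HeLa Kyoto cells (double thymidine block for G1/S, nocodazole release for mitosis), protein amounts in NP-40 versus SDS lysates quantified by mass spectrometry, three biological replicates.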
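Wherever solubility in G1/S (NP-40 vs SDS abundance) is given: HeLa Kyoto cells arrested at G1/S by double thymidine block, proteins quantified by TMT10plex mass spectrometry in mild NP-40 versus SDS extracts, three biological replicates.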
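Wherever thermal stability score vs G1/S (z-score of summed log2 fold changes over temperatures) is given: synchronized HeLa Kyoto cells, proteins quantified by TMT10plex mass spectrometry, three biological replicates, mitosis taken 0.5 h after nocodazole release, G1/S directly after double thymidine block.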

As for “MAPQVWRRRTLERCLTEVGKATGRPECFLTIQEGLASKFTSLTKVLYDFNKILENGRIHGSPLQKLVIENFDDEQIWQQLELQNEPILQYFQNAVSETINDEDISLLPESEEQEREEDGSEIEADDKEDLEDLEEEEVSDMGNDDPEMGERAENSSKSDLRKSPVFSDEDSDLDFDISKLEQQSKVQNKGQGKPREKSIVDDKFFKLSEMEAYLENIEKEEERKDDNDEEEEDIDFFEDIDSDEDEGGLFGSKKLKSGKSSRNLKYKDFFDPVESDEDITNVHDDELDSNKEDDEIAEEEAEELSISETDEDDDLQENEDNKQHKESLKRVTFALPDDAETEDTGVLNVKKNSDEVKSSFEKRQEKMNEKIASLEKELLEKKPWQLQGEVTAQKRPENSLLEETLHFDHAVRMAPVITEETTLQLEDIIKQRIRDQAWDDVVRKEKPKEDAYEYKKRLTLDHEKSKLSLAEIYEQEYIKLNQQKTAEEENPEHVEIQKMMDSLFLKLDALSNFHFIPKPPVPEIKVVSNLPAITMEEVAPVSVSDAALLAPEEIKEKNKAGDIKTAAEKTATDKKRERRKKKYQKRMKIKEKEKRRKLLEKSSVDQAGKYSKTVASEKLKQLTKTGKASFIKDEGKDKALKSSQAFFSKLQDQVKMQINDAKKTEKKKKKRQDISVHKLKL [MPHOSPH10]”, the melting temperature in the series on HeLa Kyoto [1] (cell cycle stage: G1/S) and in the series on HeLa Kyoto [1] (cell cycle stage: mitosis) was 52.4 °C each time. In addition, in the series on HeLa Kyoto [2], the “solubility change mitosis (log2)” value was 1.06. Further, the “solubility in G1/S (log2)” value with HeLa Kyoto [3] is -2.07. Moreover, the thermal stability score in the series on HeLa Kyoto [4] (setting [5]) is 3.5; with HeLa Kyoto [4] (cell cycle stage: mitosis), 1.06.

As to “MAPRLCSISVTARRLLGGPGPRAGDVASAAAARFYSKDNEGSWFRSLFVHKVDPRKDAHSTLLSKKETSNLYKIQFHNVKPEYLDAYNSLTEAVLPKLHLDEDYPCSLVGNWNTWYGEQDQAVHLWRFSGGYPALMDCMNKLKNNKEYLEFRRERSQMLLSRRNQLLLEFSFWNEPQPRMGPNIYELRTYKLKPGTMIEWGNNWARAIKYRQENQEAVGGFFSQIGELYVVHHLWAYKDLQSREETRNAAWRKRGWDENVYYTVPLVRHMESRIMIPLKISPLQ [NIPSNAP1]”, the melting temperature with HeLa Kyoto [1] (cell cycle stage: G1/S) came out at 53.9 °C; with HeLa Kyoto [1] (cell cycle stage: mitosis), 54.3 °C. In the series on HeLa Kyoto [2], the “solubility change mitosis (log2)” value is -0.0766. For the same sequence, in the series on HeLa Kyoto [3], the “solubility in G1/S (log2)” value was found to be 0.0548. In addition, the figures for the thermal stability score in the series with HeLa Kyoto [4] (setting [5]) and in the series on HeLa Kyoto [4] (cell cycle stage: mitosis) were -0.403 and -2.28, respectively.

Turning to “MAPSSPRPALPALLVLLGALFPGPGNAQTSVSPSKVILPRGGSVLVTCSTSCDQPKLLGIETPLPKKELLLPGNNRKVYELSNVQEDSQPMCYSNCPDGQSTAKTFLTVYWTPERVELAPLPSWQPVGKNLTLRCQVEGGAPRANLTVVLLRGEKELKREPAVGEPAEVTTTVLVRRDHHGANFSCRTELDLRPQGLELFENTSAPYQLQTFVLPATPPQLVSPRVLEVDTQGTVVCSLDGLFPVSEAQVHLALGDQRLNPTVTYGNDSFSAKASVSVTAEDEGTQRLTCAVILGNQSQETLQTVTIYSFPAPNVILTKPEVSEGTEVTVKCEAHPRAKVTLNGVPAQPLGPRAQLLLKATPEDNGRSFSCSATLEVAGQLIHKNQTRELRVLYGPRLDERDCPGNWTWPENSQQTPMCQAWGNPLPELKCLKDGTFPLPIGESVTVTRDLEGTYLCRARSTQGEVTRKVTVNVLSPRYEIVIITVVAAAVIMGTAGLSTYLYNRQRKIKKYRLQQAQKGTPMKPNTQATPP [ICAM1]”, the figures for the melting temperature with HeLa Kyoto [1] (cell cycle stage: G1/S) and with HeLa Kyoto [1] (cell cycle stage: mitosis) were 56.7 °C and 58.8 °C, respectively. The “solubility change mitosis (log2)” value in the series with HeLa Kyoto [2] is 0.0971. The “solubility in G1/S (log2)” value in the series with HeLa Kyoto [3] was found to be 0.303. Also, the values for the thermal stability score in the series with HeLa Kyoto [4] (setting [5]) and in the series on HeLa Kyoto [4] (cell cycle stage: mitosis) were -2.15 and -2.19, respectively.

Regarding “MAPVGGGGRPVGGPARGRLLLAAPVLLVLLWALGARGQGSPQQGTIVGMRLASCNKSCGTNPDGIIFVSEGSTVNLRLYGYSLGNISSNLISFTEVDDAETLHKSTSCLELTKDLVVQQLVNVSRGNTSGVLVVLTKFLRRSESMKLYALCTRAQPDGPWLKWTDKDSLLFMVEEPGRFLPLWLHILLITVLLVLSGIFSGLNLGLMALDPMELRIVQNCGTEKERRYARKIEPIRRKGNYLLCSLLLGNVLVNTSLTILLDNLIGSGLMAVASSTIGIVIFGEILPQALCSRHGLAVGANTILLTKFFMLLTFPLSFPISKLLDFFLGQEIRTVYNREKLMEMLKVTEPYNDLVKEELNMIQGALELRTKTVEDIMTQLQDCFMIRSDAILDFNTMSEIMESGYTRIPVFEDEQSNIVDILYVKDLAFVDPDDCTPLKTITRFYNHPVHFVFHDTKLDAMLEEFKKGKSHLAIVQKVNNEGEGDPFYEVLGLVTLEDVIEEIIKSEILDESDMYTDNRSRKRVSEKNKRDFSAFKDADNELKVKISPQLLLAAHRFLATEVSQFSPSLISEKILLRLLKYPDVIQELKFDEHNKYYARHYLYTRNKPADYFILILQGKVEVEAGKENMKFETGAFSYYGTMALTSVPSDRSPAHPTPLSRSASLSYPDRTDVSTAATLAGSSNQFGSSVLGQYISDFSVRALVDLQYIKITRQQYQNGLLASRMENSPQFPIDGCTTHMENLAEKSELPVVDETTTLLNERNSLLHKASHENAI [CNNM4]”, the melting temperature came out at 51.7 °C in the series on HeLa Kyoto [1] (cell cycle stage: G1/S) and 52.1 °C in the series with HeLa Kyoto [1] (cell cycle stage: mitosis). Moreover, the “solubility change mitosis (log2)” value in the series with HeLa Kyoto [2] is -0.0459. Also, in the series on HeLa Kyoto [3], the “solubility in G1/S (log2)” value is -0.12. The thermal stability score was -0.56 in the series on HeLa Kyoto [4] (setting [5]) and -0.485 in the series on HeLa Kyoto [4] (cell cycle stage: mitosis).

As to “MAQAGVVGEVTQVLCAAGGALELPELRRRLRMGLSADALERLLRQRGRFVVAVRAGGAAAAPERVVLAASPLRLCRAHQGSKPGCVGLCAQLHLCRFMVYGACKFLRAGKNCRNSHSLTTEHNLSVLRTHGVDHLSYNELCQLLFQNDPWLLPEICQHYNKGDGPHGSCAFQKQCIKLHICQYFLQGECKFGTSCKRSHDFSNSENLEKLEKLGMSSDLVSRLPTIYRNAHDIKNKSSAPSRVPPLFVPQGTSERKDSSGSVSPNTLSQEEGDQICLYHIRKSCSFQDKCHRVHFHLPYRWQFLDRGKWEDLDNMELIEEAYCNPKIERILCSESASTFHSHCLNFNAMTYGATQARRLSTASSVTKPPHFILTTDWIWYWSDEFGSWQEYGRQGTVHPVTTVSSSDVEKAYLAYCTPGSDGQAATLKFQAGKHNYELDFKAFVQKNLVYGTTKKVCRRPKYVSPQDVTTMQTCNTKFPGPKSIPDYWDSSALPDPGFQKITLSSSSEEYQKVWNLFNRTLPFYFVQKIERVQNLALWEVYQWQKGQMQKQNGGKAVDERQLFHGTSAIFVDAICQQNFDWRVCGVHGTSYGKGSYFARDAAYSHHYSKSDTQTHTMFLARVLVGEFVRGNASFVRPPAKEGWSNAFYDSCVNSVSDPSIFVIFEKHQVYPEYVIQYTTSSKPSVTPSILLALGSLFSSRQ [PARP12]”, the melting temperature with HeLa Kyoto [1] (cell cycle stage: G1/S) turned out to be 49.2 °C; in the series on HeLa Kyoto [1] (cell cycle stage: mitosis), 48.1 °C. In addition, the “solubility change mitosis (log2)” value with HeLa Kyoto [2] is -0.0418. Further, the “solubility in G1/S (log2)” value in the series with HeLa Kyoto [3] was -0.201. Further, the thermal stability score was 1.19 in the series with HeLa Kyoto [4] (setting [5]) and 1.46 in the series on HeLa Kyoto [4] (cell cycle stage: mitosis).
